T1: FGFR1-DIII (Homo sapiens, UniProt P11362)
T1 construct: The FGFR1 extracellular domain has DII and DIII domains; made in house; host or cells: AAVpro293T cells
T1 sequence (P11362 255-357 limits assumed): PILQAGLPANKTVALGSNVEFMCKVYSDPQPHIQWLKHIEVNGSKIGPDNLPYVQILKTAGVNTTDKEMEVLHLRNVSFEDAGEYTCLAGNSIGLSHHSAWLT


Legend:
[1] = tested on: phospho-p44/42 MAPK (Erk½); experiment: Agonist activity by Western blotting in NIH3T3 cells; format: cell-based, mouse; details: VHH 100 nM, 30 minutes
Protocol: In order to verify the agonist activity for VHH-C(represented by #1_C in the drawing), #1-L4-#1, and #1_Fc, which were obtained in Examples above, the measurement was performed as described below using Western blotting for a change in expression level of Phospho-p44/42 MAPK (Erk½). Furthermore, a basic fibroblast growth factor (bFGF; manufactured by Fujifilm Wako Pure Chemical Corporation) was used as a positive control.
As NIH3T3, those described in Example 7 were used. NIH3T3 cells were seeded on a 6-well plate for cell culture at 2× 10^5 cells/well, and culture was performed overnight (37° C., in a 5% CO2 incubator, with light shielded). After washing with a serum-free medium, bFGF (final concentration: 10 ng/mL) or VHH (final concentration: 100 nM) diluted with the serum-free medium was added thereto, and normal culture was performed for 30 minutes. Thereafter, the well was washed with ice-cooled PBS, and the cells were peeled off with a cell scraper, transferred to a tube, and centrifuged at 300×g for 5 minutes at 4° C. to recover the cells. Thereafter, the cells were solubilized with a phosphatase inhibitor-containing RIPA buffer and left to stand on ice for 30 minutes. After the solubilization reaction, centrifugation was performed at 12,000×g for 15 minutes at 4° C. to recover the supernatant. […]

[2] = molecular target: T1, FGFR1-DIII; experiment: Binding activity by biolayer interference (BLI) to FGFR1-DIII; details: 1:1 binding model
Protocol: (§1) The FGFR1 extracellular domain has DII and DIII domains. Each of an FGFR1 extracellular domains (hereinafter may be abbreviated as “FGFR1-DIIDIII”, “FGFR1-DII”, or “FGFR1-DIII”) was expressed using AAVpro293T cells as follows, these domains were purified, and an affinity measurement test with VHH Clone #1 was performed by a biolayer interference (BLI) method.
(§2) The binding activities of FGFR1-DIIDIII, FGFR1-DII, and FGFR1-DIII to VHH Clone #1 were measured by a biolayer interference method (hereinafter sometimes abbreviated as “BLI”). In BLI, using Octet 384 (manufactured by Fortebio), VHH Clone #1 diluted with a kinetics buffer (0.05% Tween20-containing PBS, pH 7.4) was immobilized on an Anti-Penta-HIS (HIS1K, manufactured by Fortebio) sensor chip, and bound to FGFR1-DIIDIII, FGFR1-DII, and FGFR1-DIII, which had been adjusted from 100 nM in 2-fold serial dilutions, and the dissociation rate was measured.
(§3) In the preparation for measurement, a tip of the sensor chip was immersed in 200 μL of the kinetics buffer for 10 minutes in order to hydrate the sensor chip. […]
(§4) After completion of the measurements, the measured value of a Reference (only the kinetics buffer) was subtracted from the actual measurement value, and Global Fitting was performed using a 1:1 binding model using Octet software to calculate the binding activity (FIG. 22).

[3] = tested on: FGFR1-DIIDIII; experiment: Binding activity by biolayer interference (BLI) to FGFR1-DIIDIII; design: species or system human; details: 1:1 binding model
Protocol: as §1, §2, §3, §4

Chain of FGFR1-DIIDIII (P11362 158-357 limits assumed): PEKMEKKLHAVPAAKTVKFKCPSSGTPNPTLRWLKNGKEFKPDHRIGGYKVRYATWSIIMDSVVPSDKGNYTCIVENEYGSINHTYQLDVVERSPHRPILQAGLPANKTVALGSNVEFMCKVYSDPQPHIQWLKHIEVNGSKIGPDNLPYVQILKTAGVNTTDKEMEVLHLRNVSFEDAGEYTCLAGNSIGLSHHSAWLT

| Koff [2] [s⁻¹] | Kon [2] [M/s] | Koff [3] [s⁻¹] | Kon [3] [M/s] | Molecule | agonist activity (expression of phosphorylated p44/42 MAPK (Erk½)) [1] |
| --- | --- | --- | --- | --- | --- |
|  |  |  |  | #1-L4-#1: dimer of VHH #1 with linker L4 (GSEGKSSGSGSESKST), SEQ ID NO: 23 (protein, #1-L4-#1) VHH: QLQLVESGGGSVQAGGSLRLSCAASRSLSRFNVWTWYRQAPVKQRELVASITKSGDTNYAESVKGRFIISRDDDKNTVYLQMNNLKSEDTGIYYCAGSYYSGSYLYPSPGGFSVWGQGTQVTVSSGSEGKSSGSGSESKSTQLQLVESGGGSVQAGGSLRLSCAASRSLSRFNVWTWYRQAPVKQRELVASITKSGDTNYAESVKGRFIISRDDDKNTVYLQMNNLKSEDTGIYYCAGSYYSGSYLYPSPGGFSVWGQGTQVTVSS | exhibit an agonist activity |
| 0.000351 | 298000 | 0.000141 | 289000 | VHH Clone #1: alpaca-derived VHH single-domain antibody (monomer) binding FGFR1, amino acid sequence SEQ ID NO: 17 (protein, VHH_Clone_#1) VHH: QLQLVESGGGSVQAGGSLRLSCAASRSLSRFNVWTWYRQAPVKQRELVASITKSGDTNYAESVKGRFIISRDDDKNTVYLQMNNLKSEDTGIYYCAGSYYSGSYLYPSPGGFSVWGQGTQVTVSS |  |
